Source: patent publication US20240294593A1 (Genentech, published 2024)
Where a chain is given by its changes, count along the chain named. In names and notes the source's numbering stands.

B1: H1.151_L1 (antibody, V domains shown)
VH: EVQLVESGGGLVQPGGSLRLSCAASGFTFSSFGMHWVRQAPGKGLEWVSYISSGSSIIYYADSVKGRFTISRDNAKNSLYLQMNSLRAEDTAVYYCARGGRLVFSPDYWGQGTLVTVSS
VL: DIVMTQSPDSLAVSLGERATINCKSSQSLLNSGNQKNYLTWYQQKPGQPPKLLIYWASTRESGVPDRFTGSGSGTDFTLTISSLQAEDVAVYYCQNDYSYPFTFGSGTKLEIKR
notes: also called VH-W112F; Kabat 100
B2: H1.149_L1 (antibody, V domains shown)
VH: B1 VH with V103D, F104W
VL: B1 VL
notes: also called VH-V111D; Kabat 99
B3: H1.148_L1 (antibody, V domains shown)
VH: B1 VH with V103W, F104W
VL: B1 VL
notes: also called VH-V111W; Kabat 99
B4: H1.150_L1 (antibody, V domains shown)
VH: B1 VH with V103K, F104W
VL: B1 VL
notes: also called VH-V111K; Kabat 99
B5: H1.147_L1 (antibody, V domains shown)
VH: B1 VH with V103Q, F104W
VL: B1 VL
notes: also called VH-V111Q; Kabat 99
B6: H1_L1.50 (antibody, V domains shown)
VH: B1 VH with F104W
VL: B1 VL with N37S
notes: also called VL-N37S; Kabat 31
B7: H1_L1.49 (antibody, V domains shown)
VH: B1 VH with F104W
VL: B1 VL with N37E
notes: also called VL-N37E; Kabat 31
B8: H1_L1.46 (antibody, V domains shown)
VH: B1 VH with F104W
VL: B1 VL with K36I
notes: also called VL-K36I; Kabat 30
B9: H1_L1.43 (antibody, V domains shown)
VH: B1 VH with F104W
VL: B1 VL with K36A
notes: also called VL-K36A; Kabat 30
B10: H1_L1.44 (antibody, V domains shown)
VH: B1 VH with F104W
VL: B1 VL with K36G
notes: also called VL-K36G; Kabat 30
B11: H1_L1.45 (antibody, human IgG1, kappa, V domains shown)
VH: B1 VH with F104W
VL: B1 VL with K36Y
notes: also called VL-K36Y; Kabat 30
B12: H1_L1.48 (antibody, V domains shown)
VH: B1 VH with F104W
VL: B1 VL with N37H
notes: also called VL-N37H; Kabat 31
B13: H1_L1.47 (antibody, V domains shown)
VH: B1 VH with F104W
VL: B1 VL with N37D
notes: also called VL-N37D; Kabat 31
B14: H1_L1.72 (antibody, V domains shown)
VH: B1 VH with F104W
VL: B1 VL with W56S
notes: also called VL-W56S; Kabat 50
B15: H1_L1.69 (antibody, V domains shown)
VH: B1 VH with F104W
VL: B1 VL with W56I
notes: also called VL-W56I; Kabat 50
B16: H1_L1.66 (antibody, V domains shown)
VH: B1 VH with F104W
VL: B1 VL with W56F
notes: also called VL-W56F; Kabat 50
B17: H1_L1.85 (antibody, V domains shown)
VH: B1 VH with F104W
VL: B1 VL with E61K
notes: also called VL-E61K; Kabat 55
B18: H1_L1.84 (antibody, V domains shown)
VH: B1 VH with F104W
VL: B1 VL with E61Q
notes: also called VL-E61Q; Kabat 55
B19: H1_L1.86 (antibody, V domains shown)
VH: B1 VH with F104W
VL: B1 VL with E61S
notes: also called VL-E61S; Kabat 55
B20: H1_L1.87 (antibody, V domains shown)
VH: B1 VH with F104W
VL: B1 VL with E61H
notes: also called VL-E61H; Kabat 55
B21: H1_L1.77 (antibody, V domains shown)
VH: B1 VH with F104W
VL: B1 VL with T59A
notes: also called VL-T59A; Kabat 53
B22: H1_L1.78 (antibody, V domains shown)
VH: B1 VH with F104W
VL: B1 VL with T59I
notes: also called VL-T59I; Kabat 53
B23: H1_L1.74 (antibody, V domains shown)
VH: B1 VH with F104W
VL: B1 VL with W56R
notes: also called VL-W56R; Kabat 50
B24: H1_L1.71 (antibody, V domains shown)
VH: B1 VH with F104W
VL: B1 VL with W56Q
notes: also called VL-W56Q; Kabat 50
B25: H1_L1.83 (antibody, V domains shown)
VH: B1 VH with F104W
VL: B1 VL with T59Y
notes: also called VL-T59Y; Kabat 53
B26: H1_L1.67 (antibody, V domains shown)
VH: B1 VH with F104W
VL: B1 VL with W56L
notes: also called VL-W56L; Kabat 50
B27: H1_L1.68 (antibody, V domains shown)
VH: B1 VH with F104W
VL: B1 VL with W56Y
notes: also called VL-W56Y; Kabat 50
B28: H1_L1.79 (antibody, V domains shown)
VH: B1 VH with F104W
VL: B1 VL with T59Q
notes: also called VL-T59Q; Kabat 53
B29: H1_L1.89 (antibody, V domains shown)
VH: B1 VH with F104W
VL: B1 VL with E61G
notes: also called VL-E61G; Kabat 55
B30: H1_L1.75 (antibody, V domains shown)
VH: B1 VH with F104W
VL: B1 VL with T59V
notes: also called VL-T59V; Kabat 53
B31: H1_L1.70 (antibody, V domains shown)
VH: B1 VH with F104W
VL: B1 VL with W56H
notes: also called VL-W56H; Kabat 50
B32: H1_L1.82 (antibody, V domains shown)
VH: B1 VH with F104W
VL: B1 VL with T59K
notes: also called VL-T59K; Kabat 53
B33: H1_L1.88 (antibody, V domains shown)
VH: B1 VH with F104W
VL: B1 VL with E61A
notes: also called VL-E61A; Kabat 55
B34: H1_L1.80 (antibody, V domains shown)
VH: B1 VH with F104W
VL: B1 VL with T59H
notes: also called VL-T59H; Kabat 53
B35: H1_L1.65 (antibody, V domains shown)
VH: B1 VH with F104W
VL: B1 VL with T40A
notes: also called VL-T40A; Kabat 34
B36: H1_L1.81 (antibody, V domains shown)
VH: B1 VH with F104W
VL: B1 VL with T59D
notes: also called VL-T59D; Kabat 53
B37: H1_L1.73 (antibody, V domains shown)
VH: B1 VH with F104W
VL: B1 VL with W56D
notes: also called VL-W56D; Kabat 50
B38: H1_L1.76 (antibody, V domains shown)
VH: B1 VH with F104W
VL: B1 VL with T59S
notes: also called VL-T59S; Kabat 53

These binders were tested against T1, human PD-1-His (human, UniProt Q15116 25-167, limits assumed) (assay: Octet).
T1 construct: Antigen of the Octet assays; not shown: His tag
T1 sequence (Q15116 25-167 limits assumed): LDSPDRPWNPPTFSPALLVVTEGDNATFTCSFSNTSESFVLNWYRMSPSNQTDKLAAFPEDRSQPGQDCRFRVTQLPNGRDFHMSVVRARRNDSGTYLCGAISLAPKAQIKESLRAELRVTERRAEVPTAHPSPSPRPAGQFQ

| Kd | koff | kon | Binder |
| --- | --- | --- | --- |
| 309 nM | 0.087 s⁻¹ | 282000 M⁻¹ s⁻¹ | B1 |
| 116 nM | 0.0116 s⁻¹ | 99700 M⁻¹ s⁻¹ | B2 |
| 77.5 nM | 0.0112 s⁻¹ | 144000 M⁻¹ s⁻¹ | B3 |
| 60 nM | 0.00524 s⁻¹ | 87200 M⁻¹ s⁻¹ | B4 |
| 92.3 nM | 0.013 s⁻¹ | 140000 M⁻¹ s⁻¹ | B5 |

Molecular target: T1, human PD-1-His
Experiment: Octet
Remark: another data set of the same source

| Kd | koff | kon | Binder |
| --- | --- | --- | --- |
| 42.1 nM | 0.00409 s⁻¹ | 97100 M⁻¹ s⁻¹ | B6 |
| 61.1 nM | 0.00697 s⁻¹ | 114000 M⁻¹ s⁻¹ | B7 |
| 26.4 nM | 0.00324 s⁻¹ | 123000 M⁻¹ s⁻¹ | B8 |
| 39.8 nM | 0.00546 s⁻¹ | 137000 M⁻¹ s⁻¹ | B9 |
| 19.9 nM | 0.00291 s⁻¹ | 146000 M⁻¹ s⁻¹ | B10 |
| 8.6 nM | 0.00135 s⁻¹ | 157000 M⁻¹ s⁻¹ | B11 |
| 80.1 nM | 0.00785 s⁻¹ | 98000 M⁻¹ s⁻¹ | B12 |
| 23.8 nM | 0.00353 s⁻¹ | 149000 M⁻¹ s⁻¹ | B13 |

These binders were tested against T1, human PD-1-His (assay: Octet [D00120 Figure 65H]).
Excerpt: In particular, anti-human IgG-Fc (AHC) biosensors were used to capture the test articles and dipped into multiple concentrations of PD-1.

| Kd | koff | kon | Binder |
| --- | --- | --- | --- |
| 60.3 nM | 0.00348 s⁻¹ | 57700 M⁻¹ s⁻¹ | B14 |
| 25.9 nM | 0.00244 s⁻¹ | 94400 M⁻¹ s⁻¹ | B15 |
| 35.3 nM | 0.00339 s⁻¹ | 96200 M⁻¹ s⁻¹ | B16 |
| 31.8 nM | 0.00316 s⁻¹ | 99400 M⁻¹ s⁻¹ | B17 |
| 46 nM | 0.00478 s⁻¹ | 104000 M⁻¹ s⁻¹ | B18 |
| 40.6 nM | 0.0047 s⁻¹ | 116000 M⁻¹ s⁻¹ | B19 |
| 50.9 nM | 0.00552 s⁻¹ | 109000 M⁻¹ s⁻¹ | B20 |
| 50.3 nM | 0.00535 s⁻¹ | 106000 M⁻¹ s⁻¹ | B21 |
| 56.8 nM | 0.00581 s⁻¹ | 102000 M⁻¹ s⁻¹ | B22 |
| 265 nM | 0.0244 s⁻¹ | 92300 M⁻¹ s⁻¹ | B23 |
| 47.1 nM | 0.0043 s⁻¹ | 91400 M⁻¹ s⁻¹ | B24 |
| 64.3 nM | 0.00603 s⁻¹ | 93800 M⁻¹ s⁻¹ | B25 |
| 41.6 nM | 0.00418 s⁻¹ | 100000 M⁻¹ s⁻¹ | B26 |
| 178 nM | 0.0166 s⁻¹ | 92900 M⁻¹ s⁻¹ | B27 |
| 55.5 nM | 0.00731 s⁻¹ | 132000 M⁻¹ s⁻¹ | B28 |
| 43.9 nM | 0.00403 s⁻¹ | 91900 M⁻¹ s⁻¹ | B29 |
| 45.3 nM | 0.00496 s⁻¹ | 110000 M⁻¹ s⁻¹ | B30 |
| 30.9 nM | 0.00281 s⁻¹ | 90700 M⁻¹ s⁻¹ | B31 |
| 52.6 nM | 0.00602 s⁻¹ | 114000 M⁻¹ s⁻¹ | B32 |
| 43.3 nM | 0.00411 s⁻¹ | 95000 M⁻¹ s⁻¹ | B33 |
| 51 nM | 0.00578 s⁻¹ | 113000 M⁻¹ s⁻¹ | B34 |
| 98 nM | 0.00949 s⁻¹ | 96800 M⁻¹ s⁻¹ | B35 |
| 51.4 nM | 0.00606 s⁻¹ | 118000 M⁻¹ s⁻¹ | B36 |
| 51.6 nM | 0.00455 s⁻¹ | 88100 M⁻¹ s⁻¹ | B37 |
| 55 nM | 0.00512 s⁻¹ | 93100 M⁻¹ s⁻¹ | B38 |
